# Data: article PMC10154249, “Unique progerin C-terminal peptide ameliorates Hutchinson–Gilford progeria syndrome phenotype by rescuing BUBR1” (Nature Aging, 2023)
# B1: progerin (protein)
# chain: METPSQRRATRSGAQASSTPLSPTRITRLQEKEDLQELNDRLAVYIDRVRSLETENAGLRLRITESEEVVSREVSGIKAAYEAELGDARKTLDSVAKERARLQLELSKVREEFKELKARNTKKEGDLIAAQARLKDLEALLNSKEAALSTALSEKRTLEGELHDLRGQVAKLEAALGEAKKQLQDEMLRRVDAENRLQTMKEELDFQKNIYSEELRETKRRHETRLVEIDNGKQREFESRLADALQELRAQHEDQVEQYKKELEKTYSAKLDNARQSAERNSNLVGAAHEELQQSRIRIDSLSAQLSQLQKQLAAKEAKLRDLEDSLARERDTSRRLLAEKEREMAEMRARMQQQLDEYQELLDIKLALDMEIHAYRKLLEGEEERLRLSPSPTSQRSRGRASSHSSQTQGGGSVTKKRKLESTESRSSFSQHARTSGRVAVEEVDEEGKFVRLRNKSNEDQSMGNWQIKRQNGDDPLLTYRFPPKFTLKAGQVVTIWAAGAGATHSPPTDLVWKAQNTWGCGNSLRTALINSTGEEVAMRKLVRSVTVVEDDEDEDGDDLLHHHHGSHCSSSGDPAEYNLRSRTVLCGTCGQPADKASASGSGAQSPQNCSIM
# modifications: left off: GST, end not stated, kept
# B2: mVenus-progerin (protein)
# chain: METPSQRRATRSGAQASSTPLSPTRITRLQEKEDLQELNDRLAVYIDRVRSLETENAGLRLRITESEEVVSREVSGIKAAYEAELGDARKTLDSVAKERARLQLELSKVREEFKELKARNTKKEGDLIAAQARLKDLEALLNSKEAALSTALSEKRTLEGELHDLRGQVAKLEAALGEAKKQLQDEMLRRVDAENRLQTMKEELDFQKNIYSEELRETKRRHETRLVEIDNGKQREFESRLADALQELRAQHEDQVEQYKKELEKTYSAKLDNARQSAERNSNLVGAAHEELQQSRIRIDSLSAQLSQLQKQLAAKEAKLRDLEDSLARERDTSRRLLAEKEREMAEMRARMQQQLDEYQELLDIKLALDMEIHAYRKLLEGEEERLRLSPSPTSQRSRGRASSHSSQTQGGGSVTKKRKLESTESRSSFSQHARTSGRVAVEEVDEEGKFVRLRNKSNEDQSMGNWQIKRQNGDDPLLTYRFPPKFTLKAGQVVTIWAAGAGATHSPPTDLVWKAQNTWGCGNSLRTALINSTGEEVAMRKLVRSVTVVEDDEDEDGDDLLHHHHGSHCSSSGDPAEYNLRSRTVLCGTCGQPADKASASGSGAQSPQNCSIM
# modifications: left off: mVenus, end not stated, kept
# Legend:
# [1] = system: BUBR1 kinetochore localization in H1299 cells; test: Immunofluorescence, abnormal localization of BUBR1 in H1299 cells; type: cell-based; conditions: Fig. 3h, H1299, Vector 7, 11, 14, P=0.0008 vs Vector
# Description: (§1) Immunofluorescence was performed as described previously. Cells were plated on cover slips in 12-well plates, left overnight before the treatment. Cells were fixed in 1% formaldehyde in culture medium for 10 min at 37 °C and permeabilized with 0.2% Triton X-100 in PBS for 10 min at room temperature. Cells were washed twice in PBS and blocked for 1 h with 5% BSA in PBS and then incubated with primary antibodies at 4 °C overnight, washed three times in PBS and incubated with secondary antibodies for 1 h at room temperature. Cell nuclei were counterstained with a 500 nM concentration of 4,6-diamidino-2-phenylindole (DAPI) (Sigma). Images were acquired by a fluorescence microscope (OLYMPUS FV-1000, Carl Zeiss LSM880 or Leica DMi8) and analyzed with software NIS-Elements AR v.5.0.1 (Nikon), FLUOVIEW v.4.2b (OLYMPUS), ZEN v.2.3 SP1 (Carl Zeiss) and Leica Application Suite X v.3.6.0.24 (Leica). Cells were quantified by investigators who were blinded to the identity of the analyzed cell.
# PTBP1–BUBR1 mRNA 3′-UTR = test: RIP assay of PTBP1 and BUBR1 mRNA 3′-UTR in HEK-293T cells; type: cell-based; conditions: Fig. 4n, PTBP1+progerin, P=0.0002 vs PTBP1
# Description: RIP and RNA pulldown assays were performed as previously described. The RIP experiment was carried out using the EZ-Magna RIP Kit (Millipore, catalog no. 17-701). The coprecipitated RNAs were extracted through Trizol reagent and detected by RT-PCR. The primer sequences for PCR, synthesized by Comate Bioscience, were as follows:
# BUBR1-3′UTR_fwd (5′-[…]-3′) and BUBR1-3′UTR_rev (5′- […]-3′).
# IMR90 cells [2] = test: SA-β-gal staining of IMR90 cells (progerin, BUBR1, shBUBR1); type: cell-based, human; conditions: Fig.1i
# Description: SA-β-gal staining was performed as previously described. Cells were fixed in 0.5% glutaraldehyde for 15 min at room temperature, washed three times with PBS (pH 6.0) containing 1 mM MgCl2 and exposed overnight 37 °C to containing 1 mg ml^–1 5-bromo-4-chloro-3-indolyl-β-D-galactopyranoside (MCE, catalog no. HY-15934), 0.12 mM potassium ferrocyanide (Sigma, catalog no. P3289), 0.12 mM potassium ferricyanide (Sigma, catalog no. P8131) and 1 mM MgCl2 PBS buffer (pH 6.0). Cells were washed three times with H2O and observed under a microscope (OLYMPUS CKX53). SA-β-gal positive cells were quantified by investigators who were blinded to the identity of the analyzed cell.
# [3] = system: IMR90 and HGADFN003 cells; test: Metaphase chromosome spread assay, aneuploid cells; type: cell-based, human; conditions: Fig.1p, IMR90, Vector 6, 5, 8
# Description: For the metaphase chromosome spread assay, 1.5 × 10^6 cells were seeded in a 6 cm dish and incubated for 24 h with fresh medium. Then, colchicine was added to a final concentration of 0.2 μg ml^–1 and the cells were incubated at 37 °C for 2 h. After digestion, we collected and rinsed the cells with PBS. The cells were centrifuged at 160g for 10 min. Then, 1 M KCl was added to a final concentration of 0.075 mol l^–1 and the samples were incubated at 37 °C for 20 min. The cells were centrifuged, and the supernatant aspirated. The pellet was resuspended, and 1 ml methanol:glacial acetic acid (3:1) solution was added. The sample was rested at room temperature for 10 min. Then, the cells were centrifuged at 160g for 10 min. The supernatant was aspirated, and the pellet resuspended in 1 ml fixative for 30 min. The cells were centrifuged and the pellet was suspended in 1 ml fixative again for 30 min. The cells were centrifuged at 160g for 10 min and the supernatant aspirated. The pellet was then resuspended in a small volume of fixative (typically less than 500 μl) until the cell suspension appeared lightly milky. A small quantity of the cell suspension was held vertically in a pipette with the end about 10 cm above the slide. A single drop was released from this height onto the slide and allowed to air dry. The cells were then incubated with 500 nM of DAPI (Invitrogen) for 10 min. Slides were examined with an Olympus BX53 fluorescence microscope and the images were captured by using the Olympus IPP v.7.0 software. Aneuploid cells were quantified by investigators who were blinded to the identity of the analyzed cell.
# IMR90 cells [4] = test: Ki67 immunofluorescence of IMR90 cells; type: cell-based, human; conditions: Fig.1k, IMR90, Vector 67, 75, 60, P vs Vector: BUBR1 0.803, progerin 0.0018
# Description: as §1
# BUBR1 = BUBR1 nuclear membrane localization in IMR90, HGADFN003 or H1299 cells; type: cell-based, human; conditions: Fig. 2c
# Description: as §1
Molecule,Relative percentage of the number of abnormal localization cells of BUBR1 ([1]; replicate 1) [%],Relative percentage of the number of abnormal localization cells of BUBR1 ([1]; replicate 2) [%],Relative percentage of the number of abnormal localization cells of BUBR1 ([1]; replicate 3) [%],PTBP1 enrichment on BUBR1-3'UTR (2-ΔΔCt) (PTBP1–BUBR1 mRNA 3′-UTR; replicate 1),PTBP1 enrichment on BUBR1-3'UTR (2-ΔΔCt) (PTBP1–BUBR1 mRNA 3′-UTR; replicate 2),PTBP1 enrichment on BUBR1-3'UTR (2-ΔΔCt) (PTBP1–BUBR1 mRNA 3′-UTR; replicate 3),"Relative percentage of SA-β-gal positive cells (IMR90 cells [2]; Vector 2, 1, 2, P vs Vector: BUBR1 0.2302, progerin 0.0003, replicate 1) [%]","Relative percentage of SA-β-gal positive cells (IMR90 cells [2]; Vector 2, 1, 2, P vs Vector: BUBR1 0.2302, progerin 0.0003, replicate 2) [%]","Relative percentage of SA-β-gal positive cells (IMR90 cells [2]; Vector 2, 1, 2, P vs Vector: BUBR1 0.2302, progerin 0.0003, replicate 3) [%]",Relative percentage of aneuploid cells ([3]; replicate 1) [%],Relative percentage of aneuploid cells ([3]; replicate 2) [%],Relative percentage of aneuploid cells ([3]; replicate 3) [%],Relative percentage of Ki67 positive cells (IMR90 cells [4]; replicate 1) [%],Relative percentage of Ki67 positive cells (IMR90 cells [4]; replicate 2) [%],Relative percentage of Ki67 positive cells (IMR90 cells [4]; replicate 3) [%],"BUBR1 nuclear membrane localization of injected cells (BUBR1; mVenus 1, 2, 2, P<0.0001, replicate 1) [%]","BUBR1 nuclear membrane localization of injected cells (BUBR1; mVenus 1, 2, 2, P<0.0001, replicate 2) [%]","BUBR1 nuclear membrane localization of injected cells (BUBR1; mVenus 1, 2, 2, P<0.0001, replicate 3) [%]"
B1,38,37,32,8.488,7.488,7.699,40,50,39,42,38,46,27,31,35,–,–,–
B2,–,–,–,–,–,–,–,–,–,–,–,–,–,–,–,97,95,94
